Experimental data taken from the supplement of paper PMC12855868.

B1: library; numbered along this chain (parent)
chain: MAAAGGARLLRAASAVLGGPAGRWLHHAGSRAGSSGLLRNRGPGGSAEASRSLSVSARARSSSEDKITVHFINRDGETLTTKGKVGDSLLDVVVENNLDIDGFGACEGTLACSTCHLIFEDHIYEKLDAITDEENDMLDLAYGLTDRSRLGCQICLTKSMDNMTVRVPETVADARQSIDVGKTS

Variants of: B1
Assay: scaled log2 fold change in cell abundance, elesclomol vs control (0 = silent mean, 1 = nonsense mean) (scaled log2 ratio); higher = higher viability under elesclomol (loss of FDX1 cuproptosis function)
Settings: glucose 10 mM
Protocol: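 Deep mutational scan of full-length human FDX1: a pooled saturation-mutagenesis ORF library (every residue 2-184 mutated to all 19 amino acids plus stop, and silent codons where available) was expressed by lentivirus in FDX1-knockout ABC1 (14 days) or HEK293T (11 days) cells grown with elesclomol (ES) or DMSO control. Variant abundance came from ORF sequencing. The log2 fold change (ES vs control, mean of duplicates) was centred on the silent-variant mean (0) and scaled to the nonsense-variant mean (1). Higher values mean greater viability under ES, i.e. loss of FDX1 function in cuproptosis.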

[1] = with ABC1 FDX1 KO, elesclomol 5 nM, 14 days
[2] = with HEK293T FDX1 KO, elesclomol 40 nM, 11 days
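Also: variant abundance is its share of total variant reads in each endpoint sample, from next-generation sequencing of the integrated ORF PCR-amplified out of genomic DNA.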

| Variant | scaled log2 fold change [1] | scaled log2 fold change [2] |
| --- | --- | --- |
| S50C | 0.19 | 0.37 |
| S50I | 0.293 | -1.28 |
| S50N | 0.219 | -0.357 |
| S50L | -0.847 |  |
| S50A | -0.353 | 0.141 |
| S50P | -0.659 |  |
| S50H | 0.126 | 0.0217 |
| S50R | -0.0286 | 0.0212 |
| S50G | 0.758 |  |
| S50D | -0.421 | -0.999 |
| S50M | -0.234 |  |
| S50E | 0.344 | 0.116 |
| S50K | -0.433 |  |
| A47P | 0.733 | 0.555 |
| A47L | 0.835 | 0.437 |
| A47E | 0.691 | 0.694 |
| A47C | 0.788 | 1.53 |
| A47D | 0.728 | 0.746 |
| A47K | 0.89 | 0.778 |
| A47V | 0.764 | 0.63 |
| A47H | 0.813 | 1.05 |
| A47W | 0.856 | 0.727 |
| A47G | 0.844 | 0.78 |
| A47R | 0.994 | 1.12 |

| Variant | scaled log2 fold change [1] | scaled log2 fold change [2] |
| --- | --- | --- |
| A47F | 0.852 | 1.03 |
| A47Q | 0.722 | 0.93 |
| A47T | 0.83 | 0.802 |
| A47Y | 0.8 | 0.534 |
| A47S | 0.89 | 0.276 |
| A47M | 0.779 | 0.799 |
| A47N | 0.833 | 1.56 |
| A47I | 0.83 | 0.523 |
| S46D | 0.694 | 0.458 |
| S46H | 0.263 | 1.09 |
| S46R | 0.93 | 0.639 |
| S46V | 0.489 | 0.421 |
| S46T | 0.617 | 0.182 |
| S46M | 0.376 | 0.185 |
| S46Y | 0.737 | 0.775 |
| S46E | 0.844 | 0.526 |
| S46L | 0.572 | 0.692 |
| S46I | 0.589 | 0.715 |
| S46F | 0.279 | 0.769 |
| S46C | 0.738 | 0.494 |
| S46A | 0.558 | 0.128 |
| S46P | 0.0875 | 0.866 |
| S46N | 0.338 | 0.643 |
| S46Q | 0.68 | 0.186 |

| Variant | scaled log2 fold change [1] | scaled log2 fold change [2] |
| --- | --- | --- |
| S46K | 0.678 | 0.519 |
| S46G | 0.864 | 0.651 |
| E48Y | 0.494 | 1.46 |
| E48T | 0.74 | -0.184 |
| E48S | 0.616 | 0.679 |
| E48D | 0.623 | 0.469 |
| E48G | 0.667 | 0.934 |
| E48K | 0.46 | 0.746 |
| E48M | 0.829 | 0.835 |
| E48I | 0.367 | 0.905 |
| E48R | 0.787 | 0.683 |
| E48Q | 0.747 | 0.877 |
| E48W | 0.73 | 0.677 |
| E48P | 0.619 | 0.304 |
| E48H | 0.521 | 0.92 |
| E48C | 0.731 | 0.336 |
| E48N | 0.628 | 1.08 |
| E48L | 0.58 | 1.05 |
| E48F | 0.809 | 0.523 |
| E48A | 0.411 | 0.683 |
| E48V | 0.47 | 0.255 |
| A49W | 0.372 | -0.679 |
| A49M | -0.695 | -1.02 |
| A49F | 0.00966 | -0.0173 |

| Variant | scaled log2 fold change [1] | scaled log2 fold change [2] |
| --- | --- | --- |
| A49T | 0.0135 |  |
| A49R | 0.181 |  |
| A49Q | 0.504 | 0.944 |
| A49C | 0.313 | -0.749 |
| A49E | 0.155 |  |
| A49D | 0.201 |  |
| A49S | 0.123 | 1.82 |
| A49I | 0.653 | 1.22 |
| A49G | -0.302 | 0.424 |
| A49V | -0.0734 |  |
| A49L | -1.05 | -0.62 |
| A49N | -0.529 | -0.853 |
| A49P | 0.382 | 0.203 |
| A49Y | 0.29 | -1.02 |
| A49K | 0.256 | -0.293 |
| A49H | 0.394 | 0.441 |
| G45I | -0.00298 | -0.325 |
| G45L | 0.411 | -0.007 |
| G45Q | 0.0494 | 0.513 |
| G45K | 0.0509 | -0.713 |
| G45W | 0.411 | 0.942 |
| G45A | 0.315 | -0.00746 |
| G45R | 0.363 | -0.475 |
| G45M | 0.116 | -0.315 |

| Variant | scaled log2 fold change [1] | scaled log2 fold change [2] |
| --- | --- | --- |
| G45V | 0.149 | -0.648 |
| G45D | -0.348 | 0.907 |
| G45C | 0.409 | -0.145 |
| G45T | 0.167 | -0.525 |
| G45Y | 0.16 | 0.922 |
| G45P | -0.0714 | -0.0345 |
| G45N | 0.148 | 0.842 |
| G45H | 0.0762 | 0.865 |
| G45S | 0.0305 | -0.567 |
| G45E | 0.346 | 1.07 |
| G45F | -0.17 | -0.167 |
| G44P | -0.094 | 0.309 |
| G44Y | 0.198 | -0.79 |
| G44S | 0.141 | -0.291 |
| G44L | -0.1 | 0.155 |
| G44Q | 0.137 | 0.433 |
| G44N | 0.0836 | -0.289 |
| G44R | 0.286 | 0.0773 |
| G44W | 0.253 | 0.857 |
| G44T | -0.238 | 0.0578 |
| G44M | 0.13 | 0.703 |
| G44K | 0.187 | -0.0828 |
| G44V | -0.00617 | -0.478 |
